Experiment [1] has as its target CD28, full-length, expressed on transfected cells (Homo sapiens (Human)) (UniProt P10747). As to the kind of experiment: flow cytometry, cells expressing target.
Experiment [2] has as its target CTLA-4, full-length, expressed on transfected cells (Homo sapiens (Human)) (UniProt P16410). As to the kind of experiment: flow cytometry, cells expressing target. Background: Flow cytometry measures light scatter and fluorescence of single cells or particles in a stream.
Experiment [3] addresses ICOS, full-length, expressed on transfected cells (Homo sapiens (Human)) (UniProt Q9Y6W8). As to the kind of experiment: flow cytometry, cells expressing target.
Experiment [4] concerns the target human PD-1 (human) (UniProt Q15116). As to the kind of experiment: flow cytometry, CHO/PD-1 cells, 100 nM, anti-Flag.
The next experiment addresses human CTLA-4 (human). As to the kind of experiment: flow cytometry, CHO/CTLA-4 cells, 100 nM, anti-Flag.
A further experiment concerns the target PD-L1 (human). As to the kind of experiment: flow cytometry on HEK293 cells transfected with PD-L1.
The target of experiment [5] is CD28 (human) (UniProt P10747). As to the kind of experiment: flow cytometry on HEK293 cells transfected with CD28.
A further experiment concerns the target CTLA-4 (human). As to the kind of experiment: flow cytometry on HEK293 cells transfected with CTLA4.
The target in the next experiment is CD112R (human) (UniProt Q6DKI7). As to the kind of experiment: flow cytometry, transfected HEK293.
Chain of CD112R (human) (Q6DKI7 whole entry): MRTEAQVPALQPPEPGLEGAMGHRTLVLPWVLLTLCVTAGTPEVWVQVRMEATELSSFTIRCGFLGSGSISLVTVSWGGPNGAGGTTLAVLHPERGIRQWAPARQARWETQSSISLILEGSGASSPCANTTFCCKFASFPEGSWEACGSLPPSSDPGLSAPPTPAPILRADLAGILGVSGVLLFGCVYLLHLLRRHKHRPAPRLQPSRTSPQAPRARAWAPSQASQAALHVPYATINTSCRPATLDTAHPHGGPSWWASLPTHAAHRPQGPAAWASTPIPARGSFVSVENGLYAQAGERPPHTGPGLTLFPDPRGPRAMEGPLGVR
Experiment [6] addresses T1, CD226 (human) (UniProt Q15762).
T1 sequence: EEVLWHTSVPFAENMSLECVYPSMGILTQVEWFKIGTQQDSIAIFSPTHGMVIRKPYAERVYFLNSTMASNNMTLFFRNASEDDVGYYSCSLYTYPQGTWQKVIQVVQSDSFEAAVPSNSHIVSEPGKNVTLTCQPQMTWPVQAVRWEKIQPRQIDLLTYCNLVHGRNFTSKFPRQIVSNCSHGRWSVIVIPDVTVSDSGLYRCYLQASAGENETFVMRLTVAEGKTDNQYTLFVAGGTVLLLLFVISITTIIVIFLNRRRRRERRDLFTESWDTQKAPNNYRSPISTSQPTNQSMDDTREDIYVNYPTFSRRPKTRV
As to the kind of experiment: flow cytometry, transfected HEK293.

Experiment [7] deals with T2, CD96 (human) (UniProt P40200).
T2 sequence: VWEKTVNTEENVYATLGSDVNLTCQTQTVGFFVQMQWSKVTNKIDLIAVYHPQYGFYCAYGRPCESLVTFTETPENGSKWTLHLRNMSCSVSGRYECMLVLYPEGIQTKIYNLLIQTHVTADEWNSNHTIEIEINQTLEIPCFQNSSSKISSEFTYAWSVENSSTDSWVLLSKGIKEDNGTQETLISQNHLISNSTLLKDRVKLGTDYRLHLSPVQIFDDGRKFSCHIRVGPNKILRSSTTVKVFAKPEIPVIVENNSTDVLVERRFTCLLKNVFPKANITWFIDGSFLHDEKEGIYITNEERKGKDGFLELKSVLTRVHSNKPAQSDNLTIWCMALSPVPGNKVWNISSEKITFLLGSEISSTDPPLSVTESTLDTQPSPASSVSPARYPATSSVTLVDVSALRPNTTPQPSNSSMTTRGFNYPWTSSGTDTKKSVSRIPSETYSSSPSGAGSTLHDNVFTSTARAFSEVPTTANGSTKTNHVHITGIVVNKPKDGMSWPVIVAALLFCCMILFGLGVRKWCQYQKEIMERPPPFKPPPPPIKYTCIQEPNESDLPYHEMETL
As to the kind of experiment: flow cytometry, transfected HEK293.

Experiment [8] concerns the target T3, TIGIT (human) (UniProt Q495A1).
T3 sequence: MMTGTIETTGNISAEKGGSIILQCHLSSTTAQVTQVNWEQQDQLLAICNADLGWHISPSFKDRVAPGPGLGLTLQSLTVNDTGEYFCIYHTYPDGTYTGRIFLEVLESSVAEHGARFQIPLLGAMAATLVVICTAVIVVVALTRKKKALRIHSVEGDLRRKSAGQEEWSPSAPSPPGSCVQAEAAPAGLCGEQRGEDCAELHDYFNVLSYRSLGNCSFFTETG
As to the kind of experiment: flow cytometry, transfected HEK293.

In experiment [9] the target is human PD-1 (human) (UniProt Q15116).
Chain of human PD-1 (human) (Q15116 25-288): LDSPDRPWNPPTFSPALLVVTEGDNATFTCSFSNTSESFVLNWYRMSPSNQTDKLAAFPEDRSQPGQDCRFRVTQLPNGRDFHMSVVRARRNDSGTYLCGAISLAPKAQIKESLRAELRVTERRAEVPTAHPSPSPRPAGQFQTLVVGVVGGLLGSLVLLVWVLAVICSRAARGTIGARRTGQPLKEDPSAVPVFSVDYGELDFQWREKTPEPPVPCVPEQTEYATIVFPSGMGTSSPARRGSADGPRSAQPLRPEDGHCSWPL
Experiment [10] deals with T2, CD96 (human). As to the kind of experiment: flow cytometry, CD96-transfected Expi293 cells.
Experiment [11] deals with T1, CD226 (human). As to the kind of experiment: flow cytometry, CD226-transfected Expi293 cells.
The target in experiment [12] is T3, TIGIT (human). As to the kind of experiment: flow cytometry, TIGIT-transfected Expi293 cells.
For experiment [13], the target named is CD28 (human) (UniProt P10747). As to the kind of experiment: flow cytometry, Jurkat cells (endogenous CD28), 100 nM, anti-Flag.
The target of experiment [14] is T3, TIGIT (human). As to the kind of experiment: flow cytometry on transfected HEK293 cells, 100 nM.
Experiment [15] concerns the target human PD-1 (human) (UniProt Q15116). As to the kind of experiment: flow cytometry, cells expressing PD-1, 20 nM.
The target of the next experiment is CD80 (human). As to the kind of experiment: flow cytometry, cells expressing CD80, 20 nM.
Chain of CD80 (human) (chain, as listed by the source): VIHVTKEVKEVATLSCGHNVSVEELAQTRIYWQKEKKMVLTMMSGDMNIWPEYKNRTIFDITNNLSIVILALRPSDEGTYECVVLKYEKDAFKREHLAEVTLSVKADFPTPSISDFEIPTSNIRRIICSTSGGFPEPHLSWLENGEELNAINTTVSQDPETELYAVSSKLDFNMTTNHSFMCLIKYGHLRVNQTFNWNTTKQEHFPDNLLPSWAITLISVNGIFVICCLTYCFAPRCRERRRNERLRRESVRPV
The next experiment deals with PD-1-Fc (human) (UniProt Q15116). As to the kind of experiment: ForteBio Octet, PD-1 on anti-human capture sensor, 100 nM. For orientation: Biolayer interferometry detects binding as a change in optical thickness at a sensor tip.
Chain of PD-1-Fc (human) (Q15116 25-167 limits assumed): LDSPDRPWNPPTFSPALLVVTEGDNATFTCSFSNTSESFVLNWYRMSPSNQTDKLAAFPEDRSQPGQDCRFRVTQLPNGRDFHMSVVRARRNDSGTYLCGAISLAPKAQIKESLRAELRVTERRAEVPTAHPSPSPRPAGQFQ

Chain of WT CD112 IgV (Fc fusion) (chain): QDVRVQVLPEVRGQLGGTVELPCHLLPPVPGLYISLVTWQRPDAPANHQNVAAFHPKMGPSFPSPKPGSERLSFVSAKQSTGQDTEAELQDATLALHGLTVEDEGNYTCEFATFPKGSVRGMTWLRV
Chain of Wild type CD155 IgV-Fc (Fc fusion) (chain): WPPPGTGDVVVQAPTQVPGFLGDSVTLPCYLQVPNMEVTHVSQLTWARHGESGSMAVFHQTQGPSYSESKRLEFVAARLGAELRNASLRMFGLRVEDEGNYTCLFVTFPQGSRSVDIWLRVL
Chain of WT CD80 IgV-Fc (inert) (Fc fusion) (chain): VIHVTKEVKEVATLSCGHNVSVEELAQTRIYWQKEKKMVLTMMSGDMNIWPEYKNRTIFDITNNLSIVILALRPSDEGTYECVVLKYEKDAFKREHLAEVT
Chain of Wild-type PD-L1 (IgV, SEQ ID NO 309) (ligand) (chain): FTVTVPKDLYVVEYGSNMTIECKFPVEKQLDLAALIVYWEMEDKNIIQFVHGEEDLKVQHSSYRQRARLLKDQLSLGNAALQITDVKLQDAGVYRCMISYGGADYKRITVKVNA
Chain of CTLA-4, full-length, expressed on transfected cells (Homo sapiens (Human)) (P16410 36-223): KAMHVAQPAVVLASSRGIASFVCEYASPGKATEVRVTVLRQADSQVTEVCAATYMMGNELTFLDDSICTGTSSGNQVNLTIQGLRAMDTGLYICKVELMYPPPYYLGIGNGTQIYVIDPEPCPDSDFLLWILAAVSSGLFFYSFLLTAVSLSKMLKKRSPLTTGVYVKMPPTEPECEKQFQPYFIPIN
Chain of human CTLA-4 (human) (chain, as listed by the source): as the sequence (P16410 36-223) above
Chain of PD-L1 (human) (chain, as listed by the source): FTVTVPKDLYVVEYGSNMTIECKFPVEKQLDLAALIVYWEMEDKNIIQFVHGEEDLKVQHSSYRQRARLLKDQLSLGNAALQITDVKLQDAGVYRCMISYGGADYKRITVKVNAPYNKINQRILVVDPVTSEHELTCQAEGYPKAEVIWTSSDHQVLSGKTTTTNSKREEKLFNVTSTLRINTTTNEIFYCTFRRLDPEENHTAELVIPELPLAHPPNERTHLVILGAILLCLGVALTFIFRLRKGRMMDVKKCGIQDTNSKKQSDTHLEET
Chain of WT CD80 ECD-Fc (Fc fusion) (chain): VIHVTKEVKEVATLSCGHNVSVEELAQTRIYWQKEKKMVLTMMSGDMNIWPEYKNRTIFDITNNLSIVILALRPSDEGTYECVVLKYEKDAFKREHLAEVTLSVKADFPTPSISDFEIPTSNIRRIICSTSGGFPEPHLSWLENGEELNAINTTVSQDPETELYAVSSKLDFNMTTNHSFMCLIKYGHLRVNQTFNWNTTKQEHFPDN
Chain of Wild Type PD-L2 IgV Fc fusion (chain): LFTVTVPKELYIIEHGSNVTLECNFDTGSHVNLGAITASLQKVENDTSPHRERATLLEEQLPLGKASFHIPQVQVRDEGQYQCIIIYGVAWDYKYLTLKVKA
Chain of ICOS, full-length, expressed on transfected cells (Homo sapiens (Human)) (Q9Y6W8 21-199 limits assumed): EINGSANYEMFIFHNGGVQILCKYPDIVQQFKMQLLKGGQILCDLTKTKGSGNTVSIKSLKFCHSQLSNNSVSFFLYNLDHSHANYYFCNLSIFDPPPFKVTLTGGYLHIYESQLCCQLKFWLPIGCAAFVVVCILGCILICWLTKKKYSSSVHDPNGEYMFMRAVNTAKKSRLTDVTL
Chain of CTLA-4 (human) (chain, as listed by the source): as the sequence (P16410 36-223) above
Chain of Wildtype CD112-IgV Fc (Fc fusion) (chain): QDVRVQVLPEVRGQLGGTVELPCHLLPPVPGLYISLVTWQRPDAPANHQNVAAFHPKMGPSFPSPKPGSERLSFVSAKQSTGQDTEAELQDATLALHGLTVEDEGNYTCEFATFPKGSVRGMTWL

As for “ICOSL ECD-Fc V11E/N30D/N52H/N57Y/H94E/L96I/L98F/N194D/V210A/I218T (Fc fusion)”, the MFI in experiment [1] was 120000 MFI; in experiment [2], 62800 MFI; in [3] it was 180000 MFI. The parental ratio was 26.8 ratio to WT in experiment [1] and 3.55 ratio to WT in experiment [2].
Take “PD-L2 1417 (monomeric variant PD-L2 IgV H15Q/T47A/K65R/S67L/Q82R/V89D) (ligand)”: the MFI in the experiment with human PD-1 (human) [4] is 26200; with human CTLA-4 (human) it was 152.
For the substance Variant CD80 S44P/A71D Fc fusion, the MFI at 22.2 nM with PD-L1 (human) is 6310 MFI.
On to WT CD80 ECD-Fc (Fc fusion), for which the MFI at 66.6 nM in the experiment with CD28 (human) [5] turned out to be 24800 MFI.
Regarding WT CD80 IgV-Fc (inert) (Fc fusion), the results for the MFI at 66.6 nM in the experiment with CD28 (human) [5] and with CTLA-4 (human) were 1620 MFI and 20700 MFI, respectively. The substance also yielded an MFI at 22.2 nM with PD-L1 (human) of 1770 MFI.
For WT CD112 IgV (Fc fusion), the MFI at 20 nM with CD112R (human) was 1660; with CD226 (human) [6], 10800; with CD96 (human) [7], 2500; with TIGIT (human) [8] it was 34900.
In the experiment with human PD-1 (human) [9], Wild Type PD-L2 IgV Fc fusion yielded an IFN gamma levels pg/mL (MLR) of 1380 pg/mL.
For Wild type CD155 IgV-Fc (Fc fusion), the MFI with CD96 (human) [10] was 3080; in the experiment with CD226 (human) [11], 3720; with TIGIT (human) [12] it was 2720.
As to “Wild-type PD-L1 (IgV, SEQ ID NO 309) (ligand)”, the MFI was 97.4 in the experiment with human CTLA-4 (human) and 716 with CD28 (human) [13].
In turn, Wildtype CD112-IgV Fc (Fc fusion) displayed an MFI at 100 nM in the experiment with TIGIT (human) [14] of 82400 MFI.
For the substance “variant CD112 IgV-Fc Y33H, A112V (Fc fusion)”, the MFI at 100 nM with TIGIT (human) [14] is 20600 MFI.
Substance “variant PD-L1 G15A/I36T/V129D/R195G Fc fusion” gave an MFI at 20 nM with human PD-1 (human) [15] of 125 MFI.
For “variant PD-L1 I36T/M97L/A103V/Q155H Fc fusion”, the MFI at 20 nM in the experiment with CD80 (human) amounted to 128 MFI; with human PD-1 (human) [15], 120 MFI.
On to variant PD-L1 V129D/H202Q Fc fusion, for which, in the experiment with human PD-1 (human) [15], the MFI at 20 nM was 2000 MFI.
“variant PD-L2 IgV H15Q/T47A/H69L/Q82R/V89D Fc fusion” came in with an IFN gamma levels pg/mL (MLR) with human PD-1 (human) [9] of 1730 pg/mL.
In the experiment with human PD-1 (human) [9], “variant PD-L2 IgV H15Q/T47A/K65R/S67L/Q82R/V89D Fc fusion” returned an IFN gamma levels pg/mL (MLR) of 1340 pg/mL.
In the experiment with human PD-1 (human) [9], “variant PD-L2 IgV I13V/H15Q/R76G/I85F Fc fusion” displayed an IFN gamma levels pg/mL (MLR) of 1530 pg/mL. Also, the Fortebio Response Units (Response Units) with PD-1-Fc (human) was -0.04.

The record behind these values is US20250163127A1.
